Measurements as given in patent US20250002945, “NEW TALE PROTEIN SCAFFOLDS WITH IMPROVED ON-TARGET/OFF-TARGET ACTIVITY RATIOS” (CELLECTIS SA, published 2025).

How the values were obtained:
Details in all cases: tags: SV40 NLS; FokI fusion
IgH (2) left V2 TALEN = target: T1, IgH (2) left V2 TALEN (synthetic, UniProt Q56830 SEQ:15-719); test: cell_activity; T cells, mostly above 70%
T1 chain: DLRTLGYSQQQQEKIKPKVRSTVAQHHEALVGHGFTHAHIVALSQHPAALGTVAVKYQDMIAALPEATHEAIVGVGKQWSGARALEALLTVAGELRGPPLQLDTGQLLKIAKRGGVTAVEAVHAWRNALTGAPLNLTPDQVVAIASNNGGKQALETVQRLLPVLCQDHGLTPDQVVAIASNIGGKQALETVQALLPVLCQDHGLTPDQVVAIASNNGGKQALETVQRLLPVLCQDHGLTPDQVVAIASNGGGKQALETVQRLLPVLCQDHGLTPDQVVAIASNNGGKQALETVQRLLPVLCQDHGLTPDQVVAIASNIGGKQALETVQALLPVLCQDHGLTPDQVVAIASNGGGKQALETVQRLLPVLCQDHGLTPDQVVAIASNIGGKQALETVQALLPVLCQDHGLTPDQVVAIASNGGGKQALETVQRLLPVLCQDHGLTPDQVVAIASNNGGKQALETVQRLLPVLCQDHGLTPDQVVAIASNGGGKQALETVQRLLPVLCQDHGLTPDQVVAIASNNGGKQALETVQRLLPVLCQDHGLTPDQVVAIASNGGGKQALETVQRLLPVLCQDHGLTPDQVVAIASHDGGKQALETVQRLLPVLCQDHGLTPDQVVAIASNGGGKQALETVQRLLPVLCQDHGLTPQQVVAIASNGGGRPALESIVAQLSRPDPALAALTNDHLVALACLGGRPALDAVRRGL

IgH (2) right V2 TALEN = target: T2, IgH (2) right V2 TALEN (synthetic, UniProt Q56830 SEQ:15-719); test: cell_activity; T cells, mostly above 70%
T2 chain: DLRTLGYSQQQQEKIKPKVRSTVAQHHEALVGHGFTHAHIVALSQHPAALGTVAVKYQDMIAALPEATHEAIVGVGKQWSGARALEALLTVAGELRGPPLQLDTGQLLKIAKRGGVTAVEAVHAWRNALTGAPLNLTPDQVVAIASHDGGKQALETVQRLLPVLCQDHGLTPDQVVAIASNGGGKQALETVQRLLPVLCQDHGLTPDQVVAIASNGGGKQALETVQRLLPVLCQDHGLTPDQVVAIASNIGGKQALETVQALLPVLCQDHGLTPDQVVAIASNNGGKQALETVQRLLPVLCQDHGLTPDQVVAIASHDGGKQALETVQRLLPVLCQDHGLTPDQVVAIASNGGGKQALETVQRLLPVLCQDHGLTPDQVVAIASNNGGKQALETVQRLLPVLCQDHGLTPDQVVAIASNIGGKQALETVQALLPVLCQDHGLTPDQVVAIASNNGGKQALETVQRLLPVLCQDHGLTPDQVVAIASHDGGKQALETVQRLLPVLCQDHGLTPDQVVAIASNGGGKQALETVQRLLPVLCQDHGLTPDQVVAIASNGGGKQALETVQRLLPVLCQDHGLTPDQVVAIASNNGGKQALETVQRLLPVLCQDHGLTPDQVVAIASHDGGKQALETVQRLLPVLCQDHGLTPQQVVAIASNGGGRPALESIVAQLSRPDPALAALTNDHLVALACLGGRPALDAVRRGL

GADPH (1) left V2 TALEN = target: T3, GADPH (1) left V2 TALEN (synthetic, UniProt Q56830 SEQ:15-719); test: cell_activity; T cells, mostly above 70%
T3 chain: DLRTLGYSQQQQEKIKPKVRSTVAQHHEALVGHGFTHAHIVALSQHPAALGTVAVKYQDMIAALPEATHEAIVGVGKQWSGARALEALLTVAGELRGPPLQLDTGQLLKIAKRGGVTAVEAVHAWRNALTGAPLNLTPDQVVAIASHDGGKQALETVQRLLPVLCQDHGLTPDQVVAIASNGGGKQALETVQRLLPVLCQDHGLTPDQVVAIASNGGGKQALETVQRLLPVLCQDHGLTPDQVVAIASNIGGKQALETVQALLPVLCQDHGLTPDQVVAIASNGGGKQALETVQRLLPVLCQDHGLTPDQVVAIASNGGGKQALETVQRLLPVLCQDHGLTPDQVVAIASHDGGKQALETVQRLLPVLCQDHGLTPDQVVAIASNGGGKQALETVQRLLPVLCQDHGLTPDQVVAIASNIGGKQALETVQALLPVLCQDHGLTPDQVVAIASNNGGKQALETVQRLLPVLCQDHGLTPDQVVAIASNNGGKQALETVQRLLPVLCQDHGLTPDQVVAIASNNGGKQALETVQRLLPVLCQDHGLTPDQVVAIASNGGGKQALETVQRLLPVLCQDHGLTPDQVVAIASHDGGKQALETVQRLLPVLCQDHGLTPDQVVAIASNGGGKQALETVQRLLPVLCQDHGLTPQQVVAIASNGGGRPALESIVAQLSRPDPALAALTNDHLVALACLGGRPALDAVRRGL

[1] = target: CS1 TALEN left V0 FokI D84A (synthetic, UniProt Q56830, D84A (FokI domain, SEQ ID NO:109 numbering)); test: cell_activity; paired with V0 monomer
[2] = target: CS1 TALEN left V0 FokI G91A (synthetic, UniProt Q56830, G91A (FokI domain, SEQ ID NO:109 numbering)); test: cell_activity; paired with V0 monomer
[3] = target: CS1 TALEN left V0 FokI Y88A (synthetic, UniProt Q56830, Y88A (FokI domain, SEQ ID NO:109 numbering)); test: cell_activity; paired with V0 monomer
GADPH (1) right V2 TALEN = target: T4, GADPH (1) right V2 TALEN (synthetic, UniProt Q56830 SEQ:15-719); test: cell_activity; T cells, mostly above 70%
T4 chain: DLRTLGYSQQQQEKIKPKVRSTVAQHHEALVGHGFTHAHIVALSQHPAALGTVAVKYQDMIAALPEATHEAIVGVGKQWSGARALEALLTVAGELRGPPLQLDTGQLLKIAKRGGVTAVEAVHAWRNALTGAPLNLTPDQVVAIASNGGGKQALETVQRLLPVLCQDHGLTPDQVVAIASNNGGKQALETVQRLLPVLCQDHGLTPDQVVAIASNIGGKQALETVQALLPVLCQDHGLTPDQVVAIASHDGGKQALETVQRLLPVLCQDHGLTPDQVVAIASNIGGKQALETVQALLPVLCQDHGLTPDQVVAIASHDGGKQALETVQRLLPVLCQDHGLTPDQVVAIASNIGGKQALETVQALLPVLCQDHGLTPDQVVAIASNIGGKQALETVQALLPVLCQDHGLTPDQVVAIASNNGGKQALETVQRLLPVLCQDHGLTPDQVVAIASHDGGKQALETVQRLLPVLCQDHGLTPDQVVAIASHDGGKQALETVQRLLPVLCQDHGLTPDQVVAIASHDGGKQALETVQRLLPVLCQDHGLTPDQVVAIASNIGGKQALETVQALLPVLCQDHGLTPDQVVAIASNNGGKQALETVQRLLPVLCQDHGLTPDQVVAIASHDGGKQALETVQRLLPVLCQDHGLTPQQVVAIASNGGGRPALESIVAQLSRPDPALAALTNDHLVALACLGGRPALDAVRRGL

GADPH (2) right V2 TALEN = target: T5, GADPH (2) right V2 TALEN (synthetic, UniProt Q56830 SEQ:15-719); test: cell_activity; T cells, mostly above 70%
T5 chain: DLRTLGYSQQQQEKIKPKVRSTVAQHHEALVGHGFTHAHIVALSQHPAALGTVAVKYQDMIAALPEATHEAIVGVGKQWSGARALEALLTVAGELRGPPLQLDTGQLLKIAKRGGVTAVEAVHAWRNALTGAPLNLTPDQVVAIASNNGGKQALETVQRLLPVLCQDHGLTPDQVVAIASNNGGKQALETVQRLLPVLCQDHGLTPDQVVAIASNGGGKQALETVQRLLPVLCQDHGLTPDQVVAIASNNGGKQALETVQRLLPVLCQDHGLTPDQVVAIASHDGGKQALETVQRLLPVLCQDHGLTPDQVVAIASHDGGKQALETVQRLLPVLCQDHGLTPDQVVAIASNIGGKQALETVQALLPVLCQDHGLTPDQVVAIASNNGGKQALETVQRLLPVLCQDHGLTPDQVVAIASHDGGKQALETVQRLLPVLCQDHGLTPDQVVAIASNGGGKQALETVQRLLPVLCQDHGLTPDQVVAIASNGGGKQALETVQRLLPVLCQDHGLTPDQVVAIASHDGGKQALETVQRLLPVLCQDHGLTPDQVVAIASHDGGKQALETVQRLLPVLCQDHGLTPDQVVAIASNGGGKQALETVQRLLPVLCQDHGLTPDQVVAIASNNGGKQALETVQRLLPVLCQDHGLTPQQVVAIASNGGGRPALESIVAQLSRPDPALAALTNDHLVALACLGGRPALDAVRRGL

GADPH (2) left V2 TALEN = target: T6, GADPH (2) left V2 TALEN (synthetic, UniProt Q56830 SEQ:15-719); test: cell_activity; T cells, mostly above 70%
T6 chain: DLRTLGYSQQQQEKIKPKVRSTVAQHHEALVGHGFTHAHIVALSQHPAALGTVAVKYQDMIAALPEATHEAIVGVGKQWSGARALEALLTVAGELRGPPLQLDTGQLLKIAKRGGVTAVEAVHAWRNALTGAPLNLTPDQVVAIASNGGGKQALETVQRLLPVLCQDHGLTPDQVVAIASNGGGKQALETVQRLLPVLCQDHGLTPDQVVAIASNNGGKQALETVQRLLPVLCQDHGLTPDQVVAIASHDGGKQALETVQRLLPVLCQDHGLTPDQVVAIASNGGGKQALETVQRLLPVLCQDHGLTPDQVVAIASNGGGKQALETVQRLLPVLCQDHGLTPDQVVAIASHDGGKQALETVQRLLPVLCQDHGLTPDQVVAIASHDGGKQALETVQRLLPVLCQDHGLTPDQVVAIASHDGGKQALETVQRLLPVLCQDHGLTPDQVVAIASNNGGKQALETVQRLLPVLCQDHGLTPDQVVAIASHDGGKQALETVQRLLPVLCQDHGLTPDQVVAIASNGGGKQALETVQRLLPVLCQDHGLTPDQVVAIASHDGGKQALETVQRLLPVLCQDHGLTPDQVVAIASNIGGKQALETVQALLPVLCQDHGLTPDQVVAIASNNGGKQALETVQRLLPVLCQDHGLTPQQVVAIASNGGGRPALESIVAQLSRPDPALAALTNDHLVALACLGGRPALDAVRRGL

B1: IgH (2) left half-site (dsDNA)
DNA 1: TGAGTGATATGTGTCTG
DNA 2: CAGACACATATCACTCA
- activity (IgH (2) left V2 TALEN): > 50 % indels

B2: IgH (2) right half-site (dsDNA)
DNA 1: AGCAAGCTCAGCTAAGA
DNA 2: TCTTAGCTGAGCTTGCT
- activity (IgH (2) right V2 TALEN): > 50 % indels

B3: GADPH (1) left half-site (dsDNA)
DNA 1: TCTTATTCTAGGGTCTG
DNA 2: CAGACCCTAGAATAAGA
- activity (GADPH (1) left V2 TALEN): > 50 % indels

B4: CS1 left half-site (dsDNA)
DNA 1: TTCCAGAGAGCAATATG
DNA 2: CATATTGCTCTCTGGAA
- binding signal [1]: > 100 % of WT FokI
- binding signal [2]: > 100 % of WT FokI
- binding signal [3]: > 100 % of WT FokI

B5: GADPH (1) right half-site (dsDNA)
DNA 1: AGCTGGGCTTGTGTCAA
DNA 2: TTGACACAAGCCCAGCT
- activity (GADPH (1) right V2 TALEN): > 50 % indels

B6: GADPH (2) right half-site (dsDNA)
DNA 1: ACAGGAAGCTGGCACCA
DNA 2: TGGTGCCAGCTTCCTGT
- activity (GADPH (2) right V2 TALEN): > 50 % indels

B7: GADPH (2) left half-site (dsDNA)
DNA 1: TTTGCTTCCCGCTCAGA
DNA 2: TCTGAGCGGGAAGCAAA
- activity (GADPH (2) left V2 TALEN): > 50 % indels
